Biological target: monkey BCMA on BCMA-CHO cells (cynomolgus monkey)
Assay: flow cytometry (MFI) on CHO cells expressing monkey BCMA; EC50 table in the figure; fit value for a flat control curve

Chain of monkey BCMA on BCMA-CHO cells (cynomolgus monkey) (chain, as listed by the source): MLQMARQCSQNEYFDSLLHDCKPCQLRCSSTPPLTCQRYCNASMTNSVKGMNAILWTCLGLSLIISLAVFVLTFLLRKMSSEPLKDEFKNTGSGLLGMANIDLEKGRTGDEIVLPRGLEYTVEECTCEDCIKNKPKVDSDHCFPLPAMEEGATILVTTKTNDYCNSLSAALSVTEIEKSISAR

Irrelevant antibody
EC50: 0.357 µg/mL

— US20240052048A1
